The record followed here is patent US20210230570A1 (published 2021).

The experiment concerns the target T1, Factor VIIIa (recombinant FVIII, Kogenate FS, Bayer healthcare, activated with alpha-thrombin) (UniProt P00451 20-2351, limits assumed).
T1 construct: also called FVIIIa; cofactor
T1 sequence (looked up): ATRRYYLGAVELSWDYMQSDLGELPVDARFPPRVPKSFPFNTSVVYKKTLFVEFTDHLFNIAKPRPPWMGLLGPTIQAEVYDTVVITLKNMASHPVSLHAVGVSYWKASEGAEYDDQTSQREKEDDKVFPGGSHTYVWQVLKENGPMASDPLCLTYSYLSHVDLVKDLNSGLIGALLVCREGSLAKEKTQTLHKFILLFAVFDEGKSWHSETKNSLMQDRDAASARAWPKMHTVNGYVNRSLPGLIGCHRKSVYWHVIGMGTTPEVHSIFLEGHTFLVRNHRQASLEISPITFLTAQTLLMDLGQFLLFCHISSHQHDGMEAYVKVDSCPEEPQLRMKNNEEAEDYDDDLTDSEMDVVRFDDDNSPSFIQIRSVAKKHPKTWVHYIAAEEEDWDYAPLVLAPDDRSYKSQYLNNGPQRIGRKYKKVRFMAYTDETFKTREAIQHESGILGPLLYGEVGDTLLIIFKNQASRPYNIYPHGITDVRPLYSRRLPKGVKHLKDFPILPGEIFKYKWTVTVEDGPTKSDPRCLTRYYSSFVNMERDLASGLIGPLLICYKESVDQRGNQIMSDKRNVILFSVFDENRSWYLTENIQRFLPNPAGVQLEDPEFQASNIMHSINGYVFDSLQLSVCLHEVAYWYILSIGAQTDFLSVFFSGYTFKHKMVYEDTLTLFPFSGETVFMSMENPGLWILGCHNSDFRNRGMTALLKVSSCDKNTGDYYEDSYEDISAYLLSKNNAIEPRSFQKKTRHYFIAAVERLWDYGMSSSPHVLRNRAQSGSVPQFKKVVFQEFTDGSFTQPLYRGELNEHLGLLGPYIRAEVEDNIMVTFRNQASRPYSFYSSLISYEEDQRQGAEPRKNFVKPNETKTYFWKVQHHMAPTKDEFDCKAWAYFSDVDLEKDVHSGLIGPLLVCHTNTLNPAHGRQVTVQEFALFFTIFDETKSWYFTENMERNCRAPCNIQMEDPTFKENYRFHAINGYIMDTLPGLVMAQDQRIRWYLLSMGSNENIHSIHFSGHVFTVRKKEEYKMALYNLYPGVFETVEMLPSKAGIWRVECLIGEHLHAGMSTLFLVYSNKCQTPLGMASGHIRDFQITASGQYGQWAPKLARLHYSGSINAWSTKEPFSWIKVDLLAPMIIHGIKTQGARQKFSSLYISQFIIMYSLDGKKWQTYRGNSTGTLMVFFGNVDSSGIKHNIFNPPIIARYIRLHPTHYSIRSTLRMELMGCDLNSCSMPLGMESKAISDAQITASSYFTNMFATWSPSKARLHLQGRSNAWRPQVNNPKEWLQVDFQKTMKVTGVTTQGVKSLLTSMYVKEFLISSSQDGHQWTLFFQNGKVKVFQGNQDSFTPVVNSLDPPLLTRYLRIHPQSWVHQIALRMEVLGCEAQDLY
Description: same assay; KD-app of Catalyst Biosciences WT FIXa divided by KD-app of the variant. On the procedure: The molar concentration of FVIII was then determined by absorbance at 280 nm using an extinction coefficient of 1.567 mg⁻¹ mL cm⁻¹ and a molecular weight of 163.6 kDa.

B1: FIXa-A103N/N105S/K247N/N249S/R318Y/R338E/R403E/E410N (enzyme)
chain 1: YNSGKLEEFVQGNLERECMEEKCSFEEAREVFENTERTTEFWKQYVDGDQCESNPCLNGGSCKDDINSYECWCPFGFEGKNCELDVTCNIKNGRCEQFCKNSNDSKVVCSCTEGYRLAENQKSCEPAVPFPCGRVSVSQTSKLTR
chain 2: VVGGEDAKPGQFPWQVVLNGKVDAFCGGSIVNEKWIVTAAHCVETGVKITVVAGEHNIEETEHTEQNRSVIRIIPHHNYNAAINKYNHDIALLELDEPLVLNSYVTPICIADKEYTNIFLKFGSGYVSGWGRVFHKGYSALVLQYLRVPLVDRATCLESTKFTIYNNMFCAGFHEGGRDSCQGDSGGPHVTEVEGTSFLTGIISWGEECAMKGKYGIYTKVSEYVNWIKNKTKLT
As for B1, the KD-WT/KD-mut stood at 1 ratio.

B2: FIXa-R318Y/R338E/E410N/T412V (enzyme)
chain 1: YNSGKLEEFVQGNLERECMEEKCSFEEAREVFENTERTTEFWKQYVDGDQCESNPCLNGGSCKDDINSYECWCPFGFEGKNCELDVTCNIKNGRCEQFCKNSADNKVVCSCTEGYRLAENQKSCEPAVPFPCGRVSVSQTSKLTR
chain 2: VVGGEDAKPGQFPWQVVLNGKVDAFCGGSIVNEKWIVTAAHCVETGVKITVVAGEHNIEETEHTEQKRNVIRIIPHHNYNAAINKYNHDIALLELDEPLVLNSYVTPICIADKEYTNIFLKFGSGYVSGWGRVFHKGYSALVLQYLRVPLVDRATCLESTKFTIYNNMFCAGFHEGGRDSCQGDSGGPHVTEVEGTSFLTGIISWGEECAMKGKYGIYTKVSRYVNWIKNKVKLT
notes: also called R150Y/R170E/E240N/T242V (chymotrypsin numbering)
In the case of B2, the KD-WT/KD-mut came out at 10.7 ratio.

B3: FIXa-I251S/R318Y/R338E/E410N (enzyme)
chain 1: YNSGKLEEFVQGNLERECMEEKCSFEEAREVFENTERTTEFWKQYVDGDQCESNPCLNGGSCKDDINSYECWCPFGFEGKNCELDVTCNIKNGRCEQFCKNSADNKVVCSCTEGYRLAENQKSCEPAVPFPCGRVSVSQTSKLTR
chain 2: VVGGEDAKPGQFPWQVVLNGKVDAFCGGSIVNEKWIVTAAHCVETGVKITVVAGEHNIEETEHTEQKRNVSRIIPHHNYNAAINKYNHDIALLELDEPLVLNSYVTPICIADKEYTNIFLKFGSGYVSGWGRVFHKGYSALVLQYLRVPLVDRATCLESTKFTIYNNMFCAGFHEGGRDSCQGDSGGPHVTEVEGTSFLTGIISWGEECAMKGKYGIYTKVSRYVNWIKNKTKLT
notes: also called I251S/R318Y/E410N/R338E; I86S/R150Y/R170E/E240N (chymotrypsin numbering)
For B3, the KD-WT/KD-mut came out at 16.7 ratio.

B4: FIXa-K247N/N249S/N260S (enzyme)
chain 1: YNSGKLEEFVQGNLERECMEEKCSFEEAREVFENTERTTEFWKQYVDGDQCESNPCLNGGSCKDDINSYECWCPFGFEGKNCELDVTCNIKNGRCEQFCKNSADNKVVCSCTEGYRLAENQKSCEPAVPFPCGRVSVSQTSKLTR
chain 2: VVGGEDAKPGQFPWQVVLNGKVDAFCGGSIVNEKWIVTAAHCVETGVKITVVAGEHNIEETEHTEQNRSVIRIIPHHNYSAAINKYNHDIALLELDEPLVLNSYVTPICIADKEYTNIFLKFGSGYVSGWGRVFHKGRSALVLQYLRVPLVDRATCLRSTKFTIYNNMFCAGFHEGGRDSCQGDSGGPHVTEVEGTSFLTGIISWGEECAMKGKYGIYTKVSRYVNWIKEKTKLT
notes: also called K82N/N84S/N95S (chymotrypsin numbering)
As for B4, the KD-WT/KD-mut worked out at 0.6 ratio.

B5: FIXa-K228N/K247N/N249S/R318Y/R338E/R403E/E410N (enzyme)
chain 1: YNSGKLEEFVQGNLERECMEEKCSFEEAREVFENTERTTEFWKQYVDGDQCESNPCLNGGSCKDDINSYECWCPFGFEGKNCELDVTCNIKNGRCEQFCKNSADNKVVCSCTEGYRLAENQKSCEPAVPFPCGRVSVSQTSKLTR
chain 2: VVGGEDAKPGQFPWQVVLNGKVDAFCGGSIVNEKWIVTAAHCVETGVNITVVAGEHNIEETEHTEQNRSVIRIIPHHNYNAAINKYNHDIALLELDEPLVLNSYVTPICIADKEYTNIFLKFGSGYVSGWGRVFHKGYSALVLQYLRVPLVDRATCLESTKFTIYNNMFCAGFHEGGRDSCQGDSGGPHVTEVEGTSFLTGIISWGEECAMKGKYGIYTKVSEYVNWIKNKTKLT
notes: also called K63N/K82N/N84S/R150Y/R170E/R233E/E240N (chymotrypsin numbering)
For B5, the KD-WT/KD-mut was 0.9 ratio.

B6: FIXa-I251S/R318Y/R338E/R403E/E410N (enzyme)
chain 1: YNSGKLEEFVQGNLERECMEEKCSFEEAREVFENTERTTEFWKQYVDGDQCESNPCLNGGSCKDDINSYECWCPFGFEGKNCELDVTCNIKNGRCEQFCKNSADNKVVCSCTEGYRLAENQKSCEPAVPFPCGRVSVSQTSKLTR
chain 2: VVGGEDAKPGQFPWQVVLNGKVDAFCGGSIVNEKWIVTAAHCVETGVKITVVAGEHNIEETEHTEQKRNVSRIIPHHNYNAAINKYNHDIALLELDEPLVLNSYVTPICIADKEYTNIFLKFGSGYVSGWGRVFHKGYSALVLQYLRVPLVDRATCLESTKFTIYNNMFCAGFHEGGRDSCQGDSGGPHVTEVEGTSFLTGIISWGEECAMKGKYGIYTKVSEYVNWIKNKTKLT
notes: also called I86S/R150Y/R170E/R233E/E240N (chymotrypsin numbering)
Take B6: the KD-WT/KD-mut is 1.5 ratio.

B7: FIXa-K247N/N249S/N260S/R318Y/R338E/R403E/E410N (enzyme)
chain 1: YNSGKLEEFVQGNLERECMEEKCSFEEAREVFENTERTTEFWKQYVDGDQCESNPCLNGGSCKDDINSYECWCPFGFEGKNCELDVTCNIKNGRCEQFCKNSADNKVVCSCTEGYRLAENQKSCEPAVPFPCGRVSVSQTSKLTR
chain 2: VVGGEDAKPGQFPWQVVLNGKVDAFCGGSIVNEKWIVTAAHCVETGVKITVVAGEHNIEETEHTEQNRSVIRIIPHHNYSAAINKYNHDIALLELDEPLVLNSYVTPICIADKEYTNIFLKFGSGYVSGWGRVFHKGYSALVLQYLRVPLVDRATCLESTKFTIYNNMFCAGFHEGGRDSCQGDSGGPHVTEVEGTSFLTGIISWGEECAMKGKYGIYTKVSEYVNWIKNKTKLT
notes: also called K82N/N84S/N95S/R150Y/R170E/R233E/E240N (chymotrypsin numbering)
B7: the KD-WT/KD-mut is 1.5 ratio.

B8: FIXa-D104N/K106S/K247N/N249S/R318Y/R338E/R403E/E410N (enzyme)
chain 1: YNSGKLEEFVQGNLERECMEEKCSFEEAREVFENTERTTEFWKQYVDGDQCESNPCLNGGSCKDDINSYECWCPFGFEGKNCELDVTCNIKNGRCEQFCKNSANNSVVCSCTEGYRLAENQKSCEPAVPFPCGRVSVSQTSKLTR
chain 2: VVGGEDAKPGQFPWQVVLNGKVDAFCGGSIVNEKWIVTAAHCVETGVKITVVAGEHNIEETEHTEQNRSVIRIIPHHNYNAAINKYNHDIALLELDEPLVLNSYVTPICIADKEYTNIFLKFGSGYVSGWGRVFHKGYSALVLQYLRVPLVDRATCLESTKFTIYNNMFCAGFHEGGRDSCQGDSGGPHVTEVEGTSFLTGIISWGEECAMKGKYGIYTKVSEYVNWIKNKTKLT
B8: the KD-WT/KD-mut amounted to 1.1 ratio.

B9: FIXa-D104N/K106S/I251S/R318Y/R338E/E410N (enzyme)
chain 1: YNSGKLEEFVQGNLERECMEEKCSFEEAREVFENTERTTEFWKQYVDGDQCESNPCLNGGSCKDDINSYECWCPFGFEGKNCELDVTCNIKNGRCEQFCKNSANNSVVCSCTEGYRLAENQKSCEPAVPFPCGRVSVSQTSKLTR
chain 2: VVGGEDAKPGQFPWQVVLNGKVDAFCGGSIVNEKWIVTAAHCVETGVKITVVAGEHNIEETEHTEQKRNVSRIIPHHNYNAAINKYNHDIALLELDEPLVLNSYVTPICIADKEYTNIFLKFGSGYVSGWGRVFHKGYSALVLQYLRVPLVDRATCLESTKFTIYNNMFCAGFHEGGRDSCQGDSGGPHVTEVEGTSFLTGIISWGEECAMKGKYGIYTKVSRYVNWIKNKTKLT
With B9, the KD-WT/KD-mut is 7.7 ratio.

B10: FIXa-K228N/K247N/N249S (enzyme)
chain 1: YNSGKLEEFVQGNLERECMEEKCSFEEAREVFENTERTTEFWKQYVDGDQCESNPCLNGGSCKDDINSYECWCPFGFEGKNCELDVTCNIKNGRCEQFCKNSADNKVVCSCTEGYRLAENQKSCEPAVPFPCGRVSVSQTSKLTR
chain 2: VVGGEDAKPGQFPWQVVLNGKVDAFCGGSIVNEKWIVTAAHCVETGVNITVVAGEHNIEETEHTEQNRSVIRIIPHHNYNAAINKYNHDIALLELDEPLVLNSYVTPICIADKEYTNIFLKFGSGYVSGWGRVFHKGRSALVLQYLRVPLVDRATCLRSTKFTIYNNMFCAGFHEGGRDSCQGDSGGPHVTEVEGTSFLTGIISWGEECAMKGKYGIYTKVSRYVNWIKEKTKLT
notes: also called K63N/K82N/N84S (chymotrypsin numbering)
Turning to B10, the KD-WT/KD-mut worked out at 0.8 ratio.

B11: FIXa-D104N/K106S/I251S/R318Y/R338E/R403E/E410N (enzyme)
chain 1: YNSGKLEEFVQGNLERECMEEKCSFEEAREVFENTERTTEFWKQYVDGDQCESNPCLNGGSCKDDINSYECWCPFGFEGKNCELDVTCNIKNGRCEQFCKNSANNSVVCSCTEGYRLAENQKSCEPAVPFPCGRVSVSQTSKLTR
chain 2: VVGGEDAKPGQFPWQVVLNGKVDAFCGGSIVNEKWIVTAAHCVETGVKITVVAGEHNIEETEHTEQKRNVSRIIPHHNYNAAINKYNHDIALLELDEPLVLNSYVTPICIADKEYTNIFLKFGSGYVSGWGRVFHKGYSALVLQYLRVPLVDRATCLESTKFTIYNNMFCAGFHEGGRDSCQGDSGGPHVTEVEGTSFLTGIISWGEECAMKGKYGIYTKVSEYVNWIKNKTKLT
Turning to B11, the KD-WT/KD-mut worked out at 1.7 ratio.
